pKd: −log10 of the molar value.
Experiments:
[1] = biological target: T1, PDZ domain of the human MAST2 protein (MAST2-PDZ) (Homo sapiens, UniProt Q6P0Q8); experiment: Isothermal Titration Calorimetry (ITC) with MAST2-PDZ; type: binding; settings: 298 K, 50 mM Tris-HCl, 150 mM NaCl, pH7.5, read-out: Kd (μM) (dissociation constant) MAST2-PDZ
T1 sequence (Q6P0Q8 1101-1193 limits assumed): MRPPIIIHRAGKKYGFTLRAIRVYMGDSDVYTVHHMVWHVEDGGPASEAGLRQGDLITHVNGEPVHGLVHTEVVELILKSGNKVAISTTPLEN

[2] = biological target: T2, PDZ domain of the human PTPN4 protein (PTPN4-PDZ) (Homo sapiens, UniProt P29074); experiment: ITC with PTPN4-PDZ; type: binding
T2 construct: the PDZ domain of the human PTPN4 protein
T2 sequence (P29074 517-589 limits assumed): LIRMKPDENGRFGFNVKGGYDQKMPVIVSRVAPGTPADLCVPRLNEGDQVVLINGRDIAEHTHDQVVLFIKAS
Method: The affinity of the polypeptides of the invention for the PDZ domain of the human PTPN4 protein is low, i.e., the constant of dissociation (KD) of the complex formed by the polypeptide of the invention with the PDZ domain of the human PTPN4 protein is high, in particular is more than 500 μM (for example as measured by ITC, in particular in the same conditions and with the same concentrations as for the MAST2-PDZ above).
ITC measurements were made using VP-ITC VP-ITC200 calorimeters (MicroCal). MAST2-PDZ was titrated at 298 K by injections of the polypeptides (25-45 consecutive aliquots of 5-7 μL at 6-min intervals). Raw data were normalized and corrected for heats of dilution of polypeptides. Equilibrium dissociation constants (KD) were determined performing nonlinear curve fitting of the corrected data to a model with one set of sites using the Origin7.0 software (OriginLab). All samples were prepared in a buffer containing 50 mM Tris-HCl, 150 mM NaCl, pH7.5. Data were recorded with MAST2-PDZ at an initial concentration of 30 μM and with peptide at initial concentrations ranging from 250 μM to 350 μM.

For “ATT13: polypeptide ending with the MAST-2 binding domain […] (SEQ ID NO:235) (SWESHKSGGETRL; not fully specified)”, the Kd [1] was 0.57 µM and the pKd [2] was 3.80.
